Source: article PMC6465352 (Scientific Reports, 2019)

Legend:
[1] = target: T1, SyCS (Synechocystis sp. PCC 6803, UniProt Q59977); assay: DTNB assay at A412, residual activity; type: biochemical; conditions: read-out: % activity at 5 mM
T1 construct: gene gltA; full-length gltA (synthesized) in pGEX5X-1, GST-tagged, tag not reported cut; expressed in E. coli DH5alpha, glutathione-Sepharose purified
T1 sequence (Q59977 1-397): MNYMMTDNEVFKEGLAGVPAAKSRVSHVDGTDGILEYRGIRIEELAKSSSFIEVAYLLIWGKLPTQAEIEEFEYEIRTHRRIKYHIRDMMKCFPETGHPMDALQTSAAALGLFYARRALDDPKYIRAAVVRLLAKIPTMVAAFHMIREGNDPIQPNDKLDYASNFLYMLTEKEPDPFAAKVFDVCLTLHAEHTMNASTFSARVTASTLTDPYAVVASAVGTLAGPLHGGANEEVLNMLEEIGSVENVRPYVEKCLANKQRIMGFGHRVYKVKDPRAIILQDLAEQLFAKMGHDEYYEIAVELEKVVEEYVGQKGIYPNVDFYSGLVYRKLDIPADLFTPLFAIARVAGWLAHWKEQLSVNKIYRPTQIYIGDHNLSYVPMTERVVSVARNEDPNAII

[2] = target: T1, SyCS; assay: DTNB assay at A412, relative activity; type: biochemical; conditions: read-out: % activity at 5 mM
[3] = substrate: O=C(O)CC(=O)C(=O)O; assay: DTNB assay at A412, Lineweaver-Burk; type: biochemical, Synechocystis sp. PCC 6803; conditions: acetyl-CoA 0.5 mM, no effector, 50 mM Tris-HCl pH 7.5, 37 °C, GST-tagged enzyme
Excerpt: (§1) DTNB assay at […], Lineweaver-Burk on SyCS

[4] = substrate: CC(=O)SCCNC(=O)CCNC(=O)[C@H](O)C(C)(C)COP(=O)(O)OP(=O)(O)OC[C@H]1O[C@@H](n2cnc3c(N)ncnc32)[C@H](O)[C@@H]1OP(=O)(O)O; assay: DTNB assay at A412, Lineweaver-Burk; type: biochemical, Synechocystis sp. PCC 6803; conditions: oxaloacetate 1 mM, no effector, 50 mM Tris-HCl pH 7.5, 37 °C, GST-tagged enzyme
Excerpt: as §1

## C=C(OP(=O)(O)O)C(=O)O [phosphoenolpyruvate]
[1]
  activity at 5000 µM: 14%

## Nc1ncnc2c1ncn2[C@@H]1O[C@H](COP(=O)(O)OP(=O)(O)O)[C@@H](O)[C@H]1O [ADP]
[2]
  activity at 5000 µM: 369%

## O=C(O)CCC(=O)C(=O)O [2-oxoglutarate]
[1]
  activity at 5000 µM: 2%

B1: SyCS (Synechocystis sp. PCC 6803 substr. Kazusa) (protein)
chain: MNYMMTDNEVFKEGLAGVPAAKSRVSHVDGTDGILEYRGIRIEELAKSSSFIEVAYLLIWGKLPTQAEIEEFEYEIRTHRRIKYHIRDMMKCFPETGHPMDALQTSAAALGLFYARRALDDPKYIRAAVVRLLAKIPTMVAAFHMIREGNDPIQPNDKLDYASNFLYMLTEKEPDPFAAKVFDVCLTLHAEHTMNASTFSARVTASTLTDPYAVVASAVGTLAGPLHGGANEEVLNMLEEIGSVENVRPYVEKCLANKQRIMGFGHRVYKVKDPRAIILQDLAEQLFAKMGHDEYYEIAVELEKVVEEYVGQKGIYPNVDFYSGLVYRKLDIPADLFTPLFAIARVAGWLAHWKEQLSVNKIYRPTQIYIGDHNLSYVPMTERVVSVARNEDPNAII
notes: full-length gltA (synthesized) in pGEX5X-1, GST-tagged, tag not reported cut; expressed in E. coli DH5alpha, glutathione-Sepharose purified
[3]
  Km: 91 ± 11 µM
  kcat: 2.76 ± 0.26 s⁻¹
  kcat/Km: 30500 ± 3170 M⁻¹ s⁻¹
[4]
  Km: 220 ± 77 µM
  kcat: 2.51 ± 0.24 s⁻¹
  kcat/Km: 12100 ± 2950 M⁻¹ s⁻¹
